Assay results as given in CN114671948A.

Molecular target: A型肉毒毒素 (botulinum toxin type A, sample solution of Example 4) (Clostridium botulinum) (UniProt P0DPI0)
UniProt P0DPI0, sequence (P0DPI0 868-1296 limits assumed): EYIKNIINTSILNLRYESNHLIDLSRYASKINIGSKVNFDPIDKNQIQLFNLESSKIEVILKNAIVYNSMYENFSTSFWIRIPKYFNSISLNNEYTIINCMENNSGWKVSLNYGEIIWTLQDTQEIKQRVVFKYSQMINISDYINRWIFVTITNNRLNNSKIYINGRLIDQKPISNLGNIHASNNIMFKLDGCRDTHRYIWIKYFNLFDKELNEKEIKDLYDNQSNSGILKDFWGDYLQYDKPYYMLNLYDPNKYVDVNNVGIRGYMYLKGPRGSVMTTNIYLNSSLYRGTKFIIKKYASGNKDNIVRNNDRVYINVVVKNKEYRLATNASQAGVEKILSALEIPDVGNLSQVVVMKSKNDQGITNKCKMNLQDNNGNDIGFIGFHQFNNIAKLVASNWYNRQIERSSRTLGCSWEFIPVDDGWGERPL

Row | Binder | 检测限 (detection limit of the sandwich test) [ng/mL]
1 | BoNT/AHc单克隆抗体细胞株1103 (monoclonal antibody of hybridoma cell line 1103) (antibody) VH: LTMNFGLSWVFLLTLLHGFQCEVKLVKSGGGSVQPGGSLRLSCTTSGFTFSDSYMQWVRQPLGKRLEWITAGRHKANEYTTEWSASTRGRFIVSRDTSQSILNLQMNALRTEDPAISYCARDDCPHFILPRSYYFFDIWGAGTTVTVSSAKTTPPSVYPLAPVCGG VL: DIVLTQSPASLAVSLGQRATISYRPSKSVSTSRYSYMHWNQQKPGQPPRLLIYLESNLASGVPARFSGSGSGTDFTLNIHPVEEEDAATYYCQLITELTRSEGGPSWKYNGLMLHQLYP | 20
2 | BoNT/AHc单克隆抗体细胞株401 (monoclonal antibody of hybridoma cell line 401) (antibody) VH: LTMDFGLSLVFLVLTLKGVKCEVQLVESGGGLVKPGGSLKLSCAASGFAFSTSDMSWVRQTPEKRLEWVTYITSGAGNTNYPDTVKGRFTISRDNAKNTLYVQMSSLKSEDTAMYYCARQSRWSLALDYWGQGTLVTVSAAKTTPPSVYPLAPVCGG VL: LTMETDTLLLWVLLLWVPGSTGDIVLTQSPASLAVSLGQRATISYRGSNSVSISAYSYMHWNQQKPGQPPRLLIYLVWNQESGVPARFSGSGSGTDFTLNIHPVEEEDAATYYCQHITELTRSEGGPSWKSNGLMLHQLYPSPTIQ | 20
